The results in this text go back to patent publication US20200010554A1 (TUSK THERAPEUTICS, published 2020).

Substitutions are numbered along the chain they refer to. Where two headings read alike, the source gives them in different places.

For one assay, the target named is T1, recombinant mouse CD25 (mouse, UniProt P01590 22-236, biotinylated in FIG. 1A (site not stated)).
T1 construct: also called biotinylated mouse CD25
T1 sequence (looked up): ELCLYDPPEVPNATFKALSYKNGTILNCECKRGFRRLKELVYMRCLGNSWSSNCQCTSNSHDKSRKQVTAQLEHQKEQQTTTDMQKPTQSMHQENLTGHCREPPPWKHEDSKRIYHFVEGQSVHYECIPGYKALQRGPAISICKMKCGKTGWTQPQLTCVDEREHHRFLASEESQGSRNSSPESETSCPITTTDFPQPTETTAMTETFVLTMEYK
The experiment in a line: BLI Octet RED384, IgG on AHQ sensors, 100 nM antigen, 1:1 model.

For assay [1], the target named is T2, mouse CD25 expressed on cells (CHO cells expressing mouse CD25; mouse T cells) (mouse, UniProt P01590 22-268).
T2 construct: whole, on cells; also called CHO-mCD25; cellular expressed mCD25
T2 sequence (looked up): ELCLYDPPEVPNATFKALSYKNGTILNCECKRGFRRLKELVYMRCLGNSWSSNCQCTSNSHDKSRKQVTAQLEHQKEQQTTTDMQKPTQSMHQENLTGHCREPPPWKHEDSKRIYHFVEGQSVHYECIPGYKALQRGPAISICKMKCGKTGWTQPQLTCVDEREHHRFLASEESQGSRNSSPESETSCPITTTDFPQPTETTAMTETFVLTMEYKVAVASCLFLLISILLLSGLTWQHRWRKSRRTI
Kind of assay: flow cytometry on CHO cells expressing mouse CD25, MFI AF647.

Assay [2] deals with T3, recombinant mouse CD25 his tagged (mouse, UniProt P01590 22-236, limits assumed).
T3 construct: also called rmCD25 his tagged; mCD25; not shown: his tag
T3 sequence (looked up): T1 sequence (looked up)
Kind of assay: SPR Biacore 2000, antibody captured by anti-mouse antibody on CM-5 chip, recombinant mouse CD25 his tagged as analyte, bivalent analyte model.

For assay [3], the target named is T4, human CD25 expressed on cells (Karpas 299, SU-DHL-1, SR-786, in vitro differentiated Treg cells, PBMC) (human, UniProt P01589 22-272).
T4 construct: also called CD25 expressing cells
T4 sequence: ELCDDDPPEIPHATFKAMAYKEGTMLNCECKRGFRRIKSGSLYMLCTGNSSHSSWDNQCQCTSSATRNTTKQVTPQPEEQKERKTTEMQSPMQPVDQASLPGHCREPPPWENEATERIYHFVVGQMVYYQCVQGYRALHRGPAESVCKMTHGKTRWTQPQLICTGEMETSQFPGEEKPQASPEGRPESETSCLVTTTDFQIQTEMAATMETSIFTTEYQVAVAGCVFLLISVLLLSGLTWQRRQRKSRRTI
The experiment in a line: flow cytometry titration on Karpas 299 cells, AF647 secondary antibody.

Assay [4] deals with T4, human CD25 expressed on cells (Karpas …). Described as above. This is another data set of the same source.
The target is the same in assay [5]. The description is as above. The source holds these as a separate data set.
Assay [6] shares this target. The assay is described as above. The source holds these as a separate data set.
Assay [7] has the same target. The assay is described as above. The source holds these as a separate data set.
The target is the same in assay [8]. The assay is described as above. The source holds these as a separate data set.

B1: PC61(mIgG2a), recombinant anti-mouse CD25 antibody from clone PC-61.5.3 with murine IgG2a and kappa constant regions (antibody, V domains shown)
VH: EVQLQQSGAELVRPGTSVKLSCKVSGDTITAYYIHFVKQRPGQGLEWIGRIDPEDDSTEYAEKFKNKATITANTSSNTAHLKYSRLTSEDTATYFCTTDNMGATEFVYWGQGTLVTVSS
VL: QVVLTQPKSVSASLESTVKLSCKLNSGNIGSYYMHWYQQREGRSPTNLIYRDDKRPDGAPDRFSGSIDISSNSAFLTINNVQTEDEAMYFCHSYDGRMYIFGGGTKLTV
notes: also called PC61m2a; aPC61 mIgG2a
In the case of B1, the Kd in the assay with recombinant mouse CD25 was 4.6 nM; in assay [2] it was 3.6 nM. Besides, the “EC50 (read off the curve)” value in [1] was around 0.2 µg/mL.

B2: Antibody 10 (antibody, V domains shown)
VH: QVQLQESGPGLVKPSETLSLTCTVSGFSLTSYGIQWIRQPPGKGLEWIGVIWAGGSTNYNSALMSRVTISKDNSKNQFSLKLSSVTAADTAVYYCARAYGYDGSWLAYWGQGTLVTVSS
VL: EIVLTQSPATLSLSPGERATLSCRASSSVSYMHWYQQKPGQAPRPLIFATSNLASGIPARFSGSGSGTDFTLTISSLEPEDFAVYYCQQWSSNPPTFGGGTKLEIK
notes: also called Ab10
Take B2: the “EC50 (read off the curve)” value in [3] is around 0.3 µg/mL.

B3: Antibody 6 (antibody, V domains shown)
VH: EVQLLESGGGLVQPGGSLRLSCAASGFTFSSYGMSWVRQAPGKGLELVSTINGYGDTTYYPDSVKGRFTISRDNSKNTLYLQMNSLRAEDTAVYYCARDRDYGNSYYYALDYWGQGTLVTVSS
VL: B2 VL with A9G, Y31F, Y35L, F48Y, A59D, F70Y, S76R, T96A, G99Q
notes: compared with a human IgG1 isotype control
Consider B3, for which the binding result in assay [4] is “binds”.

B4: Antibody 9 (antibody, V domains shown)
VH: B3 VH with S75A, Y95F
VL: QIVLTQSPGTLSLSPGERATLSCRASSSVSFMHWLQQKPGQSPRPLIYATSNLASGIPDRFSGSGSGTDYTLTISRLEPEDFAVYYCQQWSSNPPAFGQGTKLEIK
notes: as for B3
For the molecule B4, the binding result in assay [5] is “binds”.

B5: Antibody 7 (antibody, V domains shown)
VH: B3 VH
VL: B4 VL
notes: as for B3
B5: the binding result in assay [6] is on record as “binds”.

B6: Antibody 11 (antibody, V domains shown)
VH: B2 VH
VL: B2 VL with E1Q, F70Y
notes: also called Ab11
B6: the “EC50 (read off the curve)” value in assay [7] is around 0.3 µg/mL.

B7: Antibody 8 (antibody, V domains shown)
VH: B3 VH with S75A, Y95F
VL: B4 VL with Q1E, S42A
notes: as for B3
For B7, the binding result in [8] was “binds”.
